Measured values from paper PMC2882879 (Biochemistry, 2010).

Legend:
LRP6 (Homo sapiens) = LRP6 (Homo sapiens) (UniProt O75581); assay: solid phase enzyme-linked binding assay; settings: cited from earlier work
[1] = biological target: human low-density lipoprotein receptor-related protein-5 on stably transfected ldl-7 (LDLR-deficient CHO) … (human, UniProt O75197 32-1615); assay: radioligand binding
human low-density lipoprotein receptor-related protein-5 on stably transfected ldl-7 (LDLR-deficient CHO) …, sequence (O75197 32-1615): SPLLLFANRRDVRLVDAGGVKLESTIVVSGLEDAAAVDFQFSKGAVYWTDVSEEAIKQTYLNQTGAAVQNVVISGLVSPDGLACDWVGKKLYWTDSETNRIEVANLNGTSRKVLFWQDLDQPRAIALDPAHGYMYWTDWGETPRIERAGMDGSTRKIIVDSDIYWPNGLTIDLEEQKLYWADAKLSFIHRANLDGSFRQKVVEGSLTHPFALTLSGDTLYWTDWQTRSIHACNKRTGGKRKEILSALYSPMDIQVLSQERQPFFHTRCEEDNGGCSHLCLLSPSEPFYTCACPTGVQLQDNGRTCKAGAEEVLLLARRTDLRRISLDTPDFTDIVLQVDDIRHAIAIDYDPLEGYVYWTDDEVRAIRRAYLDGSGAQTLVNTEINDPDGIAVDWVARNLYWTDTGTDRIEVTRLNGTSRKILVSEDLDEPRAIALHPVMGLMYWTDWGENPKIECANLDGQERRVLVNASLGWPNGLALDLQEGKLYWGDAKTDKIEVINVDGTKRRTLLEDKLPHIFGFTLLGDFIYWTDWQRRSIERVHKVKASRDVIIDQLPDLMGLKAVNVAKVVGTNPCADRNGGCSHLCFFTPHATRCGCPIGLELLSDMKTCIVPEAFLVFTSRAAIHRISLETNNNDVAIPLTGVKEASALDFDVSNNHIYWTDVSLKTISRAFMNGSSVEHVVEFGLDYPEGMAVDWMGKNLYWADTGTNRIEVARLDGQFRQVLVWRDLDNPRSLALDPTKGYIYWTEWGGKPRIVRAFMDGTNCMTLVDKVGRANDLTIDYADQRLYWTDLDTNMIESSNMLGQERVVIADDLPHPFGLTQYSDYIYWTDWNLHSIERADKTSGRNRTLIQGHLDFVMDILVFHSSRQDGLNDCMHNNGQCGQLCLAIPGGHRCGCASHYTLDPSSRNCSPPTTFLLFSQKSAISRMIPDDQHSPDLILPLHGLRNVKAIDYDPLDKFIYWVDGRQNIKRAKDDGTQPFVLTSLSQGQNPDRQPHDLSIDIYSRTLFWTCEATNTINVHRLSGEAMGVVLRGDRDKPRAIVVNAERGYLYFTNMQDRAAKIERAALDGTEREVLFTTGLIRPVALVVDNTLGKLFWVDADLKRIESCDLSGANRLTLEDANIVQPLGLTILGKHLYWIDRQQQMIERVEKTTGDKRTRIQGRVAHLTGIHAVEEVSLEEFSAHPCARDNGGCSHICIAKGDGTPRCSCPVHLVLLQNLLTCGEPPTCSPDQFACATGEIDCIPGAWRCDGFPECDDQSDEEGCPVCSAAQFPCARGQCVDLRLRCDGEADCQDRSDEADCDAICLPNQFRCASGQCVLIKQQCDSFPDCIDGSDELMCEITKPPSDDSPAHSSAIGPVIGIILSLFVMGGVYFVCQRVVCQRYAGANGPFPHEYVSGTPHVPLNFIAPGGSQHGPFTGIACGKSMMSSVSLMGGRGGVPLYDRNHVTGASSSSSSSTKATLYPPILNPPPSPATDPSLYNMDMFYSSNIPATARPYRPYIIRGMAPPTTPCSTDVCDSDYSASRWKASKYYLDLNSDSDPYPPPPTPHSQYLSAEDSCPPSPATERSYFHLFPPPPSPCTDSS

Rspo1, sequence (Q2MKA7 21-263): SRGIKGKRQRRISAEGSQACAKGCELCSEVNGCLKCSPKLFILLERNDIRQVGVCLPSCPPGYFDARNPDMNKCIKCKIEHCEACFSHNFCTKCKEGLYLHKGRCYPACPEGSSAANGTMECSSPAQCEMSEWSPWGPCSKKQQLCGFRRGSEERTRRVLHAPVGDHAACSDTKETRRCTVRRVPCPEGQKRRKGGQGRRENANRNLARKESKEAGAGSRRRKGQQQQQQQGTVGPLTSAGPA
LRP6 (Homo sapiens), sequence (O75581 20-1370): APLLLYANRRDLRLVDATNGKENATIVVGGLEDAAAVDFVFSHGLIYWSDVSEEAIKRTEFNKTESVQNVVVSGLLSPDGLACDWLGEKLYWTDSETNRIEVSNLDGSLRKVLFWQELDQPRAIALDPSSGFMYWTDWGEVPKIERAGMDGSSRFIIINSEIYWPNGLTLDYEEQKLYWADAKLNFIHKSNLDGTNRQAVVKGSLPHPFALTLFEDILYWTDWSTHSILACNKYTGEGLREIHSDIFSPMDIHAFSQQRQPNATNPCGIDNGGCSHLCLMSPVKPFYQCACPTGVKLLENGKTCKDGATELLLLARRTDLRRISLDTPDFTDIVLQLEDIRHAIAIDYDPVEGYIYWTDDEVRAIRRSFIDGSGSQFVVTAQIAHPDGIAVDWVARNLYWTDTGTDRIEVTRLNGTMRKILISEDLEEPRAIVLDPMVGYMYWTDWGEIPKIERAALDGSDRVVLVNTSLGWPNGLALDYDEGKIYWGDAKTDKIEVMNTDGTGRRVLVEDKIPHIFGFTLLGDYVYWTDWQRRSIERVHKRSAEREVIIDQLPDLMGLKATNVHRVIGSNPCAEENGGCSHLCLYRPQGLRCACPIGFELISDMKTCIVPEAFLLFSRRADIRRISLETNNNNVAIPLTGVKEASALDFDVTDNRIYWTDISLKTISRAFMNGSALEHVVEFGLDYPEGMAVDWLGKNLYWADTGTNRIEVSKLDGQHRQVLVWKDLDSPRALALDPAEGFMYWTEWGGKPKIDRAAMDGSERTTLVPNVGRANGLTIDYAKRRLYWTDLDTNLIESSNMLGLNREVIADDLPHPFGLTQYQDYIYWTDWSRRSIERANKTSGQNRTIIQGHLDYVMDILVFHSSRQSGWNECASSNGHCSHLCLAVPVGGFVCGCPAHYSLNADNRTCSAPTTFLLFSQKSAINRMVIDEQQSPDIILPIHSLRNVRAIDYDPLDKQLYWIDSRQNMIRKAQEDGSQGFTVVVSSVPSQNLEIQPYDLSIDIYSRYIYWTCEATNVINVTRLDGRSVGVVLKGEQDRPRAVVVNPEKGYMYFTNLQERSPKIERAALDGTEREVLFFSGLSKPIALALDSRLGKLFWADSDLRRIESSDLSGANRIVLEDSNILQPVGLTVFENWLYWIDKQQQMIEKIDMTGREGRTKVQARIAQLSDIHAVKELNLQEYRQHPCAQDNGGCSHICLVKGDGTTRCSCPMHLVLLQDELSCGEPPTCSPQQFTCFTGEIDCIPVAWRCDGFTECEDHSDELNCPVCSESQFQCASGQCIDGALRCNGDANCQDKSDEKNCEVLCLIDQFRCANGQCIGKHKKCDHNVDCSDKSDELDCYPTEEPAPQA

Kd [1] | Molecule | Kd (LRP6 (Homo sapiens))
 | Rspo1 (from UniProt Q2MKA7) | 1.2 nM
3.3 nM | recombinant mouse Mesd protein (natural protein, UniProt Q9ERE7 30-224, looked up, 125I-iodinated (IODO-GEN method) where used as radioligand; unlabelled where used as competitor) ADTPGEATPPPRKKKDIRDYNDADMARLLEQWEKDDDIEEGDLPEHKRPSAPIDFSKLDPGKPESILKMTKKGKTLMMFVTVSGNPTEKETEEITSLWQGSLFNANYDVQRFIVGSDRAIFMLRDGSYAWEIKDFLVSQDRCAEVTLEGQMYPGKGGGSKEKNKTKPEKAKKKEGDPKPRASKEDNRAGSRREDL | 
